“And” between values parts separate entries of the source, which are not always exact repeats. Identical values can stand only once. Ends that are not written are not given here. * marks the point of attachment. Biotin = O=C1N[C@H]2[C@H](CS[C@H]2CCCCC(=O)*)N1
Columns and labels:
peptide 43 (QQQQQQQQQQ) = target: T1, peptide 43 (QQQQQQQQQQ); assay: peptide ELISA, biotinylated peptide captured on streptavidin
T1 peptide: Biotin-QQQQQQQQQQ

[1] = target: T2, peptide PFRPQQPYPQ (SEQ ID NO: 62); assay: peptide ELISA; biotinylated crude peptide on streptavidin, mAb 0.5 µg/ml; value given for group B
T2 construct: Crude 10-mer of the peptide library; also called group B peptide
T2 peptide: Biotin-PFRPQQPYPQ

[2] = target: T3, peptide YPQPQLPYPQ (SEQ ID NO: 61); assay: as above
T3 construct: Crude 10-mer of the peptide library; also called group B peptide
T3 peptide: Biotin-YPQPQLPYPQ

[3] = target: T4, peptide PFPPQQPYPQ (SEQ ID NO: 60); assay: as above
T4 construct: Crude 10-mer of the peptide library; also called group B peptide
T4 peptide: Biotin-PFPPQQPYPQ

PWG-gliadin [4] = target: T5, PWG-gliadin (wheat); assay: SPR, Biacore T200; Glutenin amine-coupled to the chip, antibody as analyte 3-243 nM; 1:1 binding fit; Chi2 16 RU2, U-value 2
T5 construct: also called Gluten; glutenin
Method: (§1) In this experiment, glutenin protein was coated through amine coupling method, the antibodies were flowed over the sensor chip as analytes. The experiment was carried out using the following protocol.
(§2) Coat glutenin onto the Series S Sensor Chip CM5 via primary amine groups using the following conditions: [0123] (1) Equilibrate: HBS-EP, flow rate 10 μl/min, 5 min; [0124] […] (3) Couple ligand: inject glutenin (15 μg/ml, 10 mM sodium acetate, pH 4.5), flow rate 10 μl/min, until ˜300 RU of glutenin is coated; [0126] (4) Deactivate excess reactive groups: inject ethanolamine, flow rate 10 μl/min, 7 min.
(§3) In this study, the binding affinities between glutenin and three monoclonal antibodies were determined. The experiment was carried out where glutenin was amine coupled to the sensor chip and antibodies were used as analytes. The result of is with good curve fitting and low U-values, and thus is reliable.

PWG-gliadin [5] = target: T5, PWG-gliadin; assay: SPR (Biacore T200), gliadin amine-coupled, antibody as analyte; 'as shown in the examples'
[6] = target: T6, peptide PPQQPYPQPQ (SEQ ID NO: 54); assay: peptide ELISA; biotinylated crude peptide on streptavidin, mAb 0.5 µg/ml; value given for group A
T6 construct: Crude 10-mer of the peptide library; also called group A peptide
T6 peptide: Biotin-PPQQPYPQPQ

[7] = target: T7, peptide PPQLPYPQPP (SEQ ID NO: 59); assay: as above
T7 construct: Crude 10-mer of the peptide library; also called group A peptide
T7 peptide: Biotin-PPQLPYPQPP

[8] = target: T8, peptide SPQQPYPQPQ (SEQ ID NO: 55); assay: as above
T8 construct: Crude 10-mer of the peptide library; also called group A peptide
T8 peptide: Biotin-SPQQPYPQPQ

[9] = target: T9, peptide QLPYPQPQLP (SEQ ID NO: 52); assay: as above
T9 construct: Crude 10-mer of the peptide library; also called group A peptide
T9 peptide: Biotin-QLPYPQPQLP

[10] = target: T10, peptide PQQPYPQSQP (SEQ ID NO: 58); assay: as above
T10 construct: Crude 10-mer of the peptide library; also called group A peptide
T10 peptide: Biotin-PQQPYPQSQP

[11] = target: T11, peptide PQLPYPQPQL (SEQ ID NO: 57); assay: as above
T11 construct: Crude 10-mer of the peptide library; also called group A peptide
T11 peptide: Biotin-PQLPYPQPQL

[12] = target: T12, peptide PQLPYPQPQP (SEQ ID NO: 53); assay: as above
T12 construct: Crude 10-mer of the peptide library; also called group A peptide
T12 peptide: Biotin-PQLPYPQPQP

[13] = target: T13, peptide PQPQLPYPQP (SEQ ID NO: 51); assay: as above
T13 construct: Crude 10-mer of the peptide library; also called group A peptide
T13 peptide: Biotin-PQPQLPYPQP

[14] = target: T14, peptide PQQPYPQPQP (SEQ ID NO: 50); assay: as above
T14 construct: Crude 10-mer of the peptide library from antigen 1/2/3; also called group A peptide
T14 peptide: Biotin-PQQPYPQPQP

[15] = target: T15, peptide QPQLPYPQPQ (SEQ ID NO: 56); assay: as above
T15 construct: Crude 10-mer of the peptide library; also called group A peptide
T15 peptide: Biotin-QPQLPYPQPQ

[16] = target: T2, peptide PFRPQQPYPQ (SEQ ID NO: 62); assay: peptide ELISA; group B; the number is missing in the cell
[17] = target: T3, peptide YPQPQLPYPQ (SEQ ID NO: 61); assay: as above
[18] = target: T4, peptide PFPPQQPYPQ (SEQ ID NO: 60); assay: as above
PWG-gliadin [19] = target: T5, PWG-gliadin; assay: SPR, Biacore T200; Glutenin amine-coupled to the chip, antibody as analyte 3-243 nM; 1:1 binding fit; Chi2 29.9 RU2, U-value 2
Method: as §1, §2, §3

B1: 14G11 monoclonal antibody (antibody, IgG1, V domains shown)
VH: QIQLVQSGPEMKKPGETVKIFCKASGYTLTDYSMHWVKQAPGKGLKWMGWINTETGEPTYADDFKGRCAFSLETSVSTAFLQINNLKNEDMGTYFCASSGAWFSYWGQGTLVTVSA
VL: DVLLTQTPLSLPVSLGDQASISCRSSQTIVQINGNTHLEWFLQKPGQSPKLLIYKVSNRFSGVPDRFSGSGSGTDFTLKISRVEAEDLGIYYCFQGSHVPFTFGSGTKLEIK
notes: also called 14G11 monoclonal Ab
Peptide 43 (QQQQQQQQQQ)
  binding result: no binding
[1]
  OD450nm: < 0.5
[2]
  OD450nm: < 0.5
[3]
  OD450nm: < 0.5
PWG-gliadin [4]
  Kd: 30.6 nM
  koff: 0.00225 s⁻¹
  kon: 73600 M⁻¹ s⁻¹
PWG-gliadin [5]
  Kd: < 50 nM and ~30 nM
[6]
  OD450nm: ~1
[7]
  OD450nm: ~1
[8]
  OD450nm: ~1
[9]
  OD450nm: ~1
[10]
  OD450nm: ~1
[11]
  OD450nm: ~1
[12]
  OD450nm: ~1
[13]
  OD450nm: ~1
[14]
  OD450nm: ~1
[15]
  OD450nm: ~1

B2: 13F6 monoclonal antibody (antibody, IgG2b, V domains shown)
VH: QIQLVQSGPELKKPGETVKISCKASGYTFTDYSMHWVRQAPGKGLKWMGWINTETGEPTYADDFKGRFAFSLETSASTAYLQINNLKNEDTATHFCAPSVAWFAYWGQGTLVTVST
VL: DVLMTQTPLSLSVSLGDQASISCRSSQSIVQSNGNTHLEWFLQKPGQSPKLLIYKVSNRFSGVPDRFSGSGSGTDFTLKISRVEAEDLGVYYCFQGSHVPFTFGSGTKLEIK
notes: also called 13F6 monoclonal Ab
Peptide 43 (QQQQQQQQQQ)
  binding result: no binding
PWG-gliadin [5]
  Kd: < 10 nM and 5 nM to 6 nM (2×)
[16]
  binding result: binds
[17]
  binding result: binds
[18]
  binding result: binds
[6]
  OD450nm: ~2
[7]
  OD450nm: ~2
[8]
  OD450nm: ~2
[9]
  OD450nm: ~2
[10]
  OD450nm: ~2
[11]
  OD450nm: ~2
[12]
  OD450nm: ~2
[13]
  OD450nm: ~2
[14]
  OD450nm: ~2
[15]
  OD450nm: ~2
PWG-gliadin [19]
  Kd: 5.81 nM
  koff: 0.000663 s⁻¹
  kon: 114000 M⁻¹ s⁻¹

Reference: US20220135656A1 (NIMA ACQUISITION, published 2022)
